In patent US20110159003A1 (DOMANTIS, published 2011):
Positions count from the first letter of the chain named.

T1: human IL-4 (human, UniProt P05112 25-153, biotinylated in the RBA and on the Biacore chip)
T1 sequence (looked up): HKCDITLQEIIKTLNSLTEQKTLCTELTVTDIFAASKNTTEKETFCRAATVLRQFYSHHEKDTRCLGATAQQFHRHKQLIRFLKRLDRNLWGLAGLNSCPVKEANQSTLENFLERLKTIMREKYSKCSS

B1: DOM10-213 TVAAPS-DOM9-155-78 (bispecific antibody, from a related filing, part only)
chain: DIQMTQSPSSLSASVGDRVTITCRASQAIPWGLNWYQQKPGKAPKLLIYDVSSLQSGVPSRFSGSGSGTDFTLTISSLQPEDFATYYCQQDIHIPMTFGQGTKVEIKRTVAAPSDIQMTQSPSSLSASVGDRVTITCRASRHIGDWLHWYQQKPGKAPKLLIAWASTLDSGVPSRFSGSGSGTDFTLTISSLQPEDFATYYCLQEGWGPPTFGQGTKVEIKR
B2: DOM9-44-502 (other)
VL: DIQMTQSPSSLSASVGDRVTITCRASQNINFWLRWYQQKPGKAPTLLIYDASRSQSGVPSRFSGSGSGTDFTLTISSLQPEDFATYYCQQDLMPPYTFGQGTKVEIKR
B3: DOM10-53-316 (protein)
VH: GVQLLESGGGLVQPGGSLRLSCAASGFIFAWYDMGWARQAPGKGLEWVSSIDWHGEVTYYADSVKGRFTISRDNSKNTLYLQMNSLRAEDTAVYYCATAEDEPGYDYWGQGTLVTVSS
B4: DOM9-112-22 (other)
VH: EVQLLESWGGLVQPGGSLRLSCAASGFTFRNYGMAWVRQAPGKGLEWISWIDASGTETYYADPVKGRFTISRDNSKNTLYLQMNSLRAEDTAVYYCAKSLGRFDYWGQGTLVTVSS
B5: DOM10-176-535 (protein)
VL: DIQMTQSPSSLSASVGDRVTITCRASQWIGPYLNWYQQKPGKAPKPLIYMGYWAPSGVPSRFSGSGSGTDFTLTISSLQPEDFATYYCQQDLYPPFTFGQGTKVEIKR
B6: IgG:9-44-502×10-176-535 (bispecific antibody, V domains shown, not shown: a dimerising Fc or GST)
V domain 1: B2 VL
V domain 2: B5 VL
notes: IgG-like format from vector pDOM30 (heavy and light chain cassettes); also called dual specific IgG-like format
B7: DOM10-208-TVAAPS-DOM9-155-78 (bispecific antibody, from a related filing, part only)
chain: DIQMTQSPSSLSASVGDRVTITCRASSPITDGLAWYQQKPGKAPKLLIDTGSRLQSGVPSRFSGSGSGTDFTLTISSLQPEDFATYYCRQGAMGSYTFGQGTKVEIKRTVAAPSDIQMTQSPSSLSASVGDRVTITCRASRHIGDWLHWYQQKPGKAPKLLIAWASTLDSGVPSRFSGSGSGTDFTLTISSLQPEDFATYYCLQEGWGPPTFGQGTKVEIKR
B8: DOM10-224 TVAAPS-DOM9-155-78 (bispecific antibody, from a related filing, part only)
chain: B7 chain with S27P, P28N, T30A, D31V, G32D, D49R, T50G, G51V
B9: DOM10-215 TVAAPS-DOM9-155-78 (bispecific antibody, from a related filing, part only)
chain: DIQMTQSPSSLSASVGDRVTITCRASQNIFADLNWYQQKPGKAPKLLIYMGSRLQSGVPSRFSGSGSGTDFTLTISSLQPEDFATYYCQQDYKFPLTFGQGTKVEIKRTVAAPSDIQMTQSPSSLSASVGDRVTITCRASRHIGDWLHWYQQKPGKAPKLLIAWASTLDSGVPSRFSGSGSGTDFTLTISSLQPEDFATYYCLQEGWGPPTFGQGTKVEIKR

Columns and labels:
human IL-13 [1] = target: T2, human IL-13 (human, UniProt P35225 35-146, limits assumed, biotinylated on the Biacore chip); assay: Dom10 RBA (text: IL-13 sandwich ELISA), binder titrated
T2 construct: also called interleukin-13; biotinylated IL-13

human IL-4 [2] = target: T1, human IL-4; assay: DOM9 RBA (IL-4 RBA), binder titrated
human IL-4 [3] = target: T1, human IL-4; assay: cell-based or functional assay
[4] = target: variant IL-13 (R130Q) (human), P35225; assay: cell-based or functional assay
human IL-13 [5] = target: T2, human IL-13; assay: IL-13 sandwich ELISA, binder titrated; printed as potency
Experimental: A MAXISORP™ plate (high protein binding ELISA plate, Nunc, Denmark) was coated overnight with 2.5 μg/ml coating antibody (Module Set, Bender MedSystems, Vienna, Austria), then washed once with 0.05% (v/v) Tween 20 in PBS before blocking with 0.5% (w/v) BSA 0.05% (v/v) Tween 20 in PBS. […] The plate was then incubated with TMB substrate (KPL, Gaithersburg, USA), and the reaction was stopped by the addition of HCl and the absorbance read at 450 nm.

human IL-4 [6] = target: T1, human IL-4; assay: IL-4 RBA (ELISA), binder titrated; printed as potency
Description: The wells were washed three times with 0.1% (v/v) Tween 20 in PBS, followed by three washes with PBS, before blocking with 2% (w/v) BSA in PBS. […] The reaction was stopped by the addition of HCl and the absorbance read at 450 nm.

T2 sequence (P35225 35-146 limits assumed): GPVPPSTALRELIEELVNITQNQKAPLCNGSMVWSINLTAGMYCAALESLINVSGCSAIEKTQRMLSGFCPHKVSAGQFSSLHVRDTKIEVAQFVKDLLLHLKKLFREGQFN
Chain of variant IL-13 (R130Q) (human), P35225 (P35225 35-146, stated change not applied): as the sequence (P35225 35-146 limits assumed) above

Binder	EC50 (human IL-13 [1])	IC50 (human IL-4 [2])	further results
B1	62 nM	6.91 nM	
B2			average inhibition of HDM induced PBMC proliferation at 100 nM dAb (human IL-4 [3]): 38%
B3			TF-1 proliferation IC50, variant IL-13 [4]: 0.52 nM
B4			average inhibition of HDM induced PBMC proliferation at 100 nM dAb (human IL-4 [3]): 23%
B5			TF-1 proliferation IC50, variant IL-13 [4]: 7.8 nM
B6			IC50 (human IL-13 [5]): 1 nM; IC50 (human IL-4 [6]): 13 nM
B7	4240 nM	8.18 nM	
B8		12.5 nM	
B9	10.8 nM	6.65 nM	
